Assay results reported in the supplement of paper PMC9170038.

System: MS2 coat protein
Assay: apparent KD of MS2 coat protein; designed switch direction (-1 OFF switch, 1 ON switch): -1; higher = weaker reporter binding
Settings: Eterna round: R98
Experimental: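 RNA-MaP: designed FMN/MS2 RNA switches (84 nt design region) are transcribed on-chip within common flanks and titrated with SNAP-549-labelled MS2 coat protein (about 1-3000 nM) in 100 mM Tris pH 7.5, 80 mM KCl, 4 mM MgCl2, without or with 200 uM FMN. Median apparent KD per design; activation ratio = KD,OFF / KD,ON.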

| Sequence | apparent KD of MS2 coat protein (input ligand: FMN 200 uM) [nM] | apparent KD of MS2 coat protein (input ligand: none) [nM] |
| --- | --- | --- |
| CCAUACAUGAGGAUCACCCAUGACAUGAGGAUCACCCAUGUGCAGGAUAUACGUGAUAUAAUAAAGUAGAAGGGCAGACCAAAA [LRO002_Exclusion NG 3] | 87.4 | 74.2 |
| UCACAGUGUCGUUAUCCGUAGCGAACAUGAGGAUCACCCAUGUAGGAUAUGUUAUUAAACUAAUAACAGAAGGACGUUAGUCGG [Ex NG3 #21] | 94.3 | 36 |
| AAUAUAAAAGAGCUGGAUAACUCAACAUGAGGAUCACCCAUGUAGGAUAUCAGCACGAUAAGUGCUGAGAAGGACAACCAGCUC [Denovo 69] | 16.2 | 14.8 |
| UAUAUAAUUAAGAGCUGGACCAAAACAUGAGGAUCACCCAUGUAGGAUAUCAGCACGAUAAGUGCUGAGAAGGACUACCAGCUC [Denovo 83] | 22.4 | 18.5 |
| AUGCUUCACACAGGAUAUACAUGAGGAUCACCCAUGUGUGGGCGGUAGCUGACACGAGCUACCGGGUAGAAGGGUGUGAAGCAU [xclu_NG2_cac21] | 127 | 32.6 |
| AUGACAGGCAAAGCGCAACGGCGAACAUGAGGAUCACCCAUGUAGGAUAUGCUACACAAAGUGUAGCAGAAGGACAUACGACGA [Ex NG2 #82] | 88.6 | 41.2 |
| UGUUGUUACGCAGGAUAUUGCCAACAGGCAGUAGGAUAUCCGAAAGGAGAAGGACCGCCAACAGGCGAGAAGGGCGGGUUAACA [pwkr exNG2 2xF7 2FMN.10 scored 83] | 35 | 57.9 |
